Results reported in patent publication US11891445 (ABL BIO, dated 2024).
Changes are numbered by the printed parent chain. Names and notes keep the numbering of the source. Blank lines part the entries; values can stand above or below the binder they belong to.

Tests used:
[1] = target: T1, human B7-H3 expressed on a cell surface (human cancer cell lines) (human, UniProt Q5ZPR3 29-534); test: flow cytometry, HT29 cells, antibody 10 ug/ml
T1 construct: whole, on cells; also called cell surface expression B7-H3 antigen
T1 sequence (looked up): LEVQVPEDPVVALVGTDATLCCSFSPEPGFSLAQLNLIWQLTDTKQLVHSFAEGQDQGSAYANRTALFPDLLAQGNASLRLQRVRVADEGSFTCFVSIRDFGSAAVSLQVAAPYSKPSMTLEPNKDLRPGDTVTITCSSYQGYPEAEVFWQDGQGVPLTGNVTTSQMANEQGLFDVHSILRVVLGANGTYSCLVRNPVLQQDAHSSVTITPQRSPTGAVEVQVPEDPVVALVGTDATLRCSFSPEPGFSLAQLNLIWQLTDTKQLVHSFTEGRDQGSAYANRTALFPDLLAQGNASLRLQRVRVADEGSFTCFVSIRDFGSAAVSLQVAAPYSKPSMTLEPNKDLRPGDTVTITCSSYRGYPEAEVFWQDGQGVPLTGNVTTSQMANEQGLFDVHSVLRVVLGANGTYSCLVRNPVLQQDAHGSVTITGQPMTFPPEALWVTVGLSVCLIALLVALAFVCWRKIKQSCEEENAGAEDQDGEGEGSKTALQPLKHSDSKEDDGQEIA
Text: (§1) Using various kinds of cancer cells A2780 (human ovarian cancer, ECACC, 93112519), SKOV-3 (human ovarian adenocarcinoma, ATCC® HTB-77™) OVCAR-3 (human ovarian adenocarcinoma, ATCC® HTB-161™), HCT116 (colon cancer cell, ThermoFIshcer Sci), HT29 (olorectal adenocarcinoma, ATCC® HTB-38™), DLD-1 (colorectal adenocarcinoma cell lines, ATCC® CCL-221™), Calu-6 (Non-small-cell lung carcinoma, ATCC® HTB-56™), HCC1954 (TNM stage IIA, grade 3, ductal carcinoma, ATCC® CRL-2338™), HCC1187 (TNM stage IIA, ATCC® CLC-2322™), renal cancer cell line 786-0 (renal cell adenocarcinoma, ATCC® CRL-1932™), A498 (kidney carcinoma, ATCC® HTB-44™), Panc-1 (pancreas epithelioid carcinoma, TCC CRL-1469™), NCI-N87 (gastric carcinoma, TCC CRL-5822™), HeLa (cervix adenocarcinoma, ATCC® CCL-2™), JeKo-1 (Lymphoma, ATCC® CRL-3006™) and FACSCalibur (BD Biosciences) device, the degree of binding of anti-B7-H3 antibody to B7-H3 was measured as follows.
(§2) After dissociating each cell line and washing it with PBS buffer, the number of cells was counted and adjusted to 2×10^5 cells/200 µl PBS, and then was treated with 10 µg/ml of B7-H3 monoclonal antibodies prepared in Example 2. Reaction was allowed at 4° C. for 1 hr. […] After the reaction, cells were washed in PBS and analyzed using the FACSCalibur device. […]

[2] = target: T1, human B7-H3 expressed on a cell surface …; test: flow cytometry, Hela cells, antibody 10 ug/ml
Text: as §1, §2

[3] = target: T1, human B7-H3 expressed on a cell surface …; test: flow cytometry, 786-0 cells, antibody 10 ug/ml
Text: as §1, §2

[4] = target: T1, human B7-H3 expressed on a cell surface …; test: flow cytometry, A-498 cells, antibody 10 ug/ml
Text: as §1, §2

[5] = target: T1, human B7-H3 expressed on a cell surface …; test: flow cytometry, A2780 cells, antibody 10 ug/ml
Text: as §1, §2

[6] = target: T1, human B7-H3 expressed on a cell surface …; test: flow cytometry, DLD-1 cells, antibody 10 ug/ml
Text: as §1, §2

[7] = target: T1, human B7-H3 expressed on a cell surface …; test: flow cytometry, MCF-7 cells, antibody 10 ug/ml
[8] = target: T1, human B7-H3 expressed on a cell surface …; test: flow cytometry, Calu-6 cells, antibody 10 ug/ml
Text: as §1, §2

[9] = target: T1, human B7-H3 expressed on a cell surface …; test: flow cytometry, HCT116 cells, antibody 10 ug/ml
Text: as §1, §2

[10] = target: T1, human B7-H3 expressed on a cell surface …; test: flow cytometry, JeKo-1 cells, antibody 10 ug/ml
Text: as §1, §2

[11] = target: T1, human B7-H3 expressed on a cell surface …; test: flow cytometry, Panc-1 cells, antibody 10 ug/ml
Text: as §1, §2

[12] = target: T1, human B7-H3 expressed on a cell surface …; test: flow cytometry, SKOV-3 cells, antibody 10 ug/ml
Text: as §1, §2

[13] = target: T1, human B7-H3 expressed on a cell surface …; test: flow cytometry, HCC1187 cells, antibody 10 ug/ml
Text: as §1, §2

[14] = target: T1, human B7-H3 expressed on a cell surface …; test: flow cytometry, HCC1954 cells, antibody 10 ug/ml
Text: as §1, §2

[15] = target: T1, human B7-H3 expressed on a cell surface …; test: flow cytometry, NCI-N87 cells, antibody 10 ug/ml
Text: as §1, §2

[16] = target: T1, human B7-H3 expressed on a cell surface …; test: flow cytometry, OVCAR-3 cells, antibody 10 ug/ml
Text: as §1, §2

[17] = target: T1, human B7-H3 expressed on a cell surface …; test: flow cytometry, MDA-MB-231 cells, antibody 10 ug/ml
[18] = target: T1, human B7-H3 expressed on a cell surface …; test: flow cytometry, MDA-MB-468 cells, antibody 10 ug/ml
[19] = target: T2, recombinant human B7-H3 protein with a histidine tag linked to the C terminal (2318-B3/CF, R&D Systems) (human) (UniProt Q5ZPR3); test: ELISA, soluble scFv on coated B7-H3-His 100 ng per well, anti-HA HRP
T2 sequence (looked up): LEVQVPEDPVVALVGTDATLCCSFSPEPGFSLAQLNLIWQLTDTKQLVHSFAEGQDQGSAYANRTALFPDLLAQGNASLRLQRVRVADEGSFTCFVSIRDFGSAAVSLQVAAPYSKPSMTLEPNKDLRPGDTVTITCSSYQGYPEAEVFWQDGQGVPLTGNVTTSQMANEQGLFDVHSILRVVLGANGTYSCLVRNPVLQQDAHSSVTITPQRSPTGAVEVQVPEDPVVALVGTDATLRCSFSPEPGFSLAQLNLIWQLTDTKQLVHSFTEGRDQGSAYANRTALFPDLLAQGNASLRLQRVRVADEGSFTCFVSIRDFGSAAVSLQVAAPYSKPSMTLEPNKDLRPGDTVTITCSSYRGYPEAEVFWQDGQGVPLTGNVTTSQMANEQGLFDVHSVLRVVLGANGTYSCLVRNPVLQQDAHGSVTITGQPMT

[20] = target: T3, recombinant human B7-H3 protein (bought antigen used for ELISA analysis and T cell activity analysis) (human, UniProt Q5ZPR3 29-461); test: ELISA on plate-coated recombinant human B7-H3
T3 construct: range 1-461; also called extracellular domain (ECD) of B7-H3 protein; not shown: C-terminal histidine tag or Fc region of human IgG1 (Sino Biological 11188-H02H)
T3 sequence (looked up): T2 sequence (looked up)
Procedure: Specifically, after diluting the recombinant human B7-H3 protein at a concentration of 1 µg/ml and putting it into a 96-well plate (Nunc-Immuno Plates, NUNC) in 100 µl per well, it was reacted at 4° C. for 16 hrs for coating. The recombinant human B7-H3 protein used in Example 1 was used here.
Then, after removing the protein and washing it with PBST, a PBS buffer comprising 1% BSA (bovine serum albumin) was put at 200 µl per well and it was reacted at 37° C. for 2 hrs to block non-specific binding. Then, after diluting anti-B7-H3 antibodies prepared in Example 2 at a concentration of 10 µg/ml on the 96-well plate, 100 µl was put in each well and it was reacted at 37° C. for 1 hr. Then after it was washed with PBST. In order to detect antibodies bound to human B7-H3, HRP-connected anti-human IgG F(ab')2 antibody (Goat anti-Human IgG F(ab')2 Cross-Adsorbed Secondary Antibody, HRP, Pierce, 31414) was diluted by 1:10,000 in PBS comprising 1% bovine serum albumin (BSA), and 100 µl was put per well and it was reacted at 37° C. for about 1 hr. After washing it with PBST again, TMB (Tetramethylbenzidine, Sigma, T0440) 100 µl was put to develop color. After reacting it at RT for 5-10 min, 50 µl of 1N H_2SO_4 was put to finish the reaction, and the absorbance at 450 nm and 650 nm was measured by using a micro plate reader (molecular device).

MFI Ratio [1]: 8.9 ratio
MFI Ratio [2]: 23.5 ratio
MFI Ratio [3]: 20 ratio
MFI Ratio [4]: 24 ratio
MFI Ratio [5]: 13.1 ratio
MFI Ratio [6]: 10.7 ratio
MFI Ratio [7]: 78 ratio
MFI Ratio [8]: 23.2 ratio
MFI Ratio [9]: 5.9 ratio
MFI Ratio [10]: 2.9 ratio
MFI Ratio [11]: 9 ratio
MFI Ratio [12]: 11.9 ratio
MFI Ratio [13]: 14.9 ratio
MFI Ratio [14]: 14 ratio
MFI Ratio [15]: 12.8 ratio
MFI Ratio [16]: 13.7 ratio
MFI Ratio [17]: 5.4 ratio
MFI Ratio [18]: 8.6 ratio
B1: 84D (comparison group antibody, Enoblituzumab) (antibody, V domains shown)
VH: EVQLVESGGGLVQPGGSLRLSCAASGFTFSSFGMHWVRQAPGKGLEWVAYISSDSSAIYYADTVKGRFTISRDNAKNSLYLQMNSLRDEDTAVYYCGRGRENIYYGSRLDYWGQGTTVTVSS
VL: DIQLTQSPSFLSASVGDRVTITCKASQNVDTNVAWYQQKPGKAPKALIYSASYRYSGVPSRFSGSGSGTDFTLTISSLQPEDFATYYCQQYNNYPFTFGQGTKLEIK

absorbance at 450 nm [19]: 1
B2: anti-B7-H3 scFv clone B5 (soluble monoclonal scFv) (scFv, part only; not given: linker, domain order and HA tag, V domains shown, not shown: another chain or arm of the molecule; small tags and cut ends)
VH: EVQLLESGGGLVQPGGSLRLSCAASGFTFSDYAMSWVRQAPGKGLEWVSSISSGSGSIYYADSVKGRFTISRDNSKNTLYLQMNSLRAEDTAVYYCAKNLIPLDYWGQGTLVTVSS
VL: QSVLTQPPSASGTPGQRVTISCSGSSSNIGSNAVSWYQQLPGTAPKLLIYYNSHRPSGVPDRFSGSKSGTSASLAISGLRSEDEADYYCGSWDASLNAYVFGGGTKLTVL

absorbance at 450 nm [19]: 1
B3: anti-B7-H3 scFv clone F6V (soluble monoclonal scFv) (scFv, part only; not given: linker, domain order and HA tag, V domains shown, not shown: another chain or arm of the molecule; small tags and cut ends)
VH: EVQLLESGGGLVQPGGSLRLSCAASGFTFSDYAMSWVRQAPGKGLEWVSGISPGGSNTYYADSVKGRFTISRDNSKNTLYLQMNSLRAEDTAVYYCAKDAWIARLLLFDYWGQGTLVTVSS
VL: B2 VL with S35T, S53N, H54K, S91T, A94D, N97S, A98G

absorbance at 450 nm [19]: 1
B4: anti-B7-H3 scFv clone C4I (soluble monoclonal scFv) (scFv, part only; not given: linker, domain order and HA tag, V domains shown, not shown: another chain or arm of the molecule; small tags and cut ends)
VH: B2 VH with D31G, A33Y, S50L, S53P, G54S, N99G, I101T, P102K, L103F
VL: B2 VL with S23T, A33D, Y51A, A94D, N97S, A98G

absorbance at 450 nm [19]: 1
B5: anti-B7-H3 scFv clone D8G (soluble monoclonal scFv) (scFv, part only; not given: linker, domain order and HA tag, V domains shown, not shown: another chain or arm of the molecule; small tags and cut ends)
VH: EVQLLESGGGLVQPGGSLRLSCAASGFTFSSYSMSWVRQAPGKGLEWVSGIYSDGSNTYYADSVKGRFTISRDNSKNTLYLQMNSLRAEDTAVYYCAKMLHRFDYWGQGTLVTVSS
VL: B2 VL with A33S, S35T, Y51A, N52D, H54Q, S91T, A94S

absorbance at 450 nm [19]: 1
B6: anti-B7-H3 scFv clone D8G M1 (soluble monoclonal scFv) (scFv, part only; not given: linker, domain order and HA tag, V domains shown, not shown: another chain or arm of the molecule; small tags and cut ends)
VH: B5 VH with G55A
VL: B2 VL with A33S, S35T, Y51A, N52D, H54Q, S91T, A94S

absorbance at 450 nm [19]: 1
B7: anti-B7-H3 scFv clone D8G M3 (soluble monoclonal scFv) (scFv, part only; not given: linker, domain order and HA tag, V domains shown, not shown: another chain or arm of the molecule; small tags and cut ends)
VH: B5 VH with G55A
VL: B2 VL with A33S, S35T, Y51A, N52D, S53V, H54Q, S91T, A94S

EC50 (read off the curve) [20]: ~0.02 nM
B8: anti-B7-H3 antibody D8G M1 (full IgG form) (antibody, V domains shown)
VH: B5 VH with G55A
VL: QSVLTQPPSASGTPGQRVTISCSGSSSNIGSNSVTWYQQLPGTAPKLLIYADSQRPSGVPDRFSGSKSGTSASLAISGLRSEDEADYYCGTWDSSLNAYVFGGGTKLTVLG

EC50 (read off the curve) [20]: ~0.02 nM
B9: anti-B7-H3 antibody D8G M3 (full IgG form) (antibody, V domains shown)
VH: B5 VH with G55A
VL: B8 VL with S53V
